From patent publication US20240190923A1
Values joined by “and” are separate entries in the source; they are usually repeats but may differ in a detail not shown here. Identical values can stand only once.

B1: C. atrox FETUA-3 (recombinant, tag-free) (protein)
chain: FQLAGNMDCNTKGTKDWADIGVRYINEHKLHGYKQALNIIKIFRLLPSDGRSVIFHFKLNLLETECHVLDPTPLENCTVRQQNNHAVEMDCNVRIIHDIATFEDEVFVKCNSTPDSVENVRRNCPKCPILLPPNDPHVIDSVEYVLNKHNEKLSGHIYEVLEISRGQHKYEPEAFYVEFAIVEVNCTAEEAHDDHHDCHPNTDGENHIGFCRATVFRSHASLEKPKEEMFESDCVILHVKKGHAYSHLIEHHVGKYNTSPGRNSTDECVVQCPVAFVNKEVPKDISDHDTPPVEGCPGKALHFQL
B2: C. atrox FETUA-5 (recombinant, tag-free) (protein)
chain: YMVREEDLNCNSKAAKYRADQAVRYINEHNLHGYKQALNIIKTIRLLPSDGLLVVIYLKLNLLETECHVLDPTPVENCTVRQQNNHAVETDCDVKVIYNIETFKDEFLVKCHSTPGSVEKILQDCPKCPILLSLSDPHVVDSVEYVLNKHNEQLSGHVYEVLEISRGQHKYEPEAFYVEFAIVEVNCTAQEAHDDHHHCHPNTAGENHIAFCRATVFRSYASLEKPKDEKFESDCVILHVKEGHAHSHLIEHHTGKHSTSPGHNSTVLNLAHSHNHTSASHESHSHEHVMEVPVAVANREDPTDIPHHHTPSVDGCPGKVLHFKL

Key:
Assay in all cases: cell-based or functional assay
[1] = target: MDC-4 (Crotalus atrox) (UniProt Q90282)
[2] = target: whole C. atrox venom (SVMP proteolytic activity)
[3] = target: whole C. atrox venom (SVMP proteolytic activity); remark: listed apart in the source

UniProt Q90282, sequence (Q90282 190-609 limits assumed): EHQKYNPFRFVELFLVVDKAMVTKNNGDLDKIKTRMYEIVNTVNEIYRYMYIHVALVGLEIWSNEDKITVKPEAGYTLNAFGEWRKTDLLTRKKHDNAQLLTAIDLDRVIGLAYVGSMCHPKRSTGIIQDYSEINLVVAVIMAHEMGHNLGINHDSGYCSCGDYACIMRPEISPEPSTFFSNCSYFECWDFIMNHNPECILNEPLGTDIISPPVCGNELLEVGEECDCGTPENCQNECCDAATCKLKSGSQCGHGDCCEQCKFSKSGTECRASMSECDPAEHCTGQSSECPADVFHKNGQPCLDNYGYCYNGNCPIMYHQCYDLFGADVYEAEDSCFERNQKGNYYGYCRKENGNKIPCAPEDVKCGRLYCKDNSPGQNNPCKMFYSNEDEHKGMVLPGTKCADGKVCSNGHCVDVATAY

Molecule | amount for ˜50% neutralization of 2 µg MDC-4 proteolysis of Azocoll [1] [µg] | weight of CroFab relative to FETUA-3 for ˜50% neutralization of MDC-4 [1] [fold] | weight of CroFab relative to FETUA-3 for approximately 50% neutralization of whole venom SVMP activity [2] [fold] | inhibition of whole venom proteolysis of Azocoll collagen substrate (10 µg venom) [3]
CroFab antivenom (crotalidae polyvalent immune fab ovine) | 12.1 | 16 | 18 | 
B1 |  |  |  | 2.5 µg and 5 µg
B2 |  |  |  | 20 µg
